Target: Recombinant His-BifA (full length) (Streptococcus equi subsp. zooepidemicus ATCC35246)
Assay: SPR; Biacore X100; His-BifA and its variants immobilised on NTA sensorchips, moesin, moesin T558A or moesin T558D injected

Recombinant moesin T558A, non-tagged (from UniProt P26038 1-577) (natural protein)
Kd: 737 nM

Recombinant moesin T558D, non-tagged (from UniProt P26038 1-577) (natural protein)
Kd: 10.8 nM
